Test results reported in publication doi:10.1101/2024.04.18.590116 (bioRxiv, 2024).

Molecular target: T1, 6xHis-MPK3 (rice, UniProt Q10N20 1-369)
T1 sequence (looked up): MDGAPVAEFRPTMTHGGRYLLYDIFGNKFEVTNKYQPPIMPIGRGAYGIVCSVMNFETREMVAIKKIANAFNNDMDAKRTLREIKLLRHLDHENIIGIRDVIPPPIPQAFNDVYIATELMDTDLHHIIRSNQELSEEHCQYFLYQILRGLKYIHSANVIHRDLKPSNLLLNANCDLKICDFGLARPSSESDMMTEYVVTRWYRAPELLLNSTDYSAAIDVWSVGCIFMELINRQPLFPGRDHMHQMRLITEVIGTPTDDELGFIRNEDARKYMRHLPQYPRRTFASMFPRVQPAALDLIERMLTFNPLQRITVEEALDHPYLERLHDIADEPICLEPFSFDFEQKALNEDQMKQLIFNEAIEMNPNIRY
Assay: pull-down

binding result: binds
B1: GST-KRP3 (natural protein, rice (Oryza sativa), UniProt Q2R185 1-225, looked up)
chain: MGKYLRSSCKQQQQPSSPAAVASVAAAAVSSYSYLTLRSGRRVPAAAAAAGGSACRRRHRRGGRRGCAKNGAGSARACGARSPTSSASSGQRRRCEAVECSHGGGRAELSRSPPLGNSVVVVSGDVVSGERKSLKPNSCSREVAAEHAGEHKHNPAAAAAAGRRPPLSPPEAEIEAFFAAAELAERRRFAEKYNYDIALDRPLQGRYEWEPTVPNFDVAKDVTDM
